This passage reports abundance fitness results from the Human Domainome abundance scans (Beltran et al. 2025).

± gives the uncertainty stated by the source.

First the molecules themselves.
B1: Tumor protein p73, residues 487 to 549; numbered along this chain, O15350 (parent)
chain: YHADPSLVSFLTGLGCPNCIEYFTSQGLQSIYHLQNLTIEDLGALKIPEQYRMTIWRGLQDLK

The variants in this data set derive from B1. The data set can be described thus: abundance fitness (aPCA) (normalised: wild type 0, dead -1); higher = more abundant; growth selection in yeast, the domain comes from the species named. The note with it: Homo sapiens.
With YEADPSLVSFLTGLGCPNCIEYFTSQGLQSIYHLQNLTIEDLGALKIPEQYRMTIWRGLQDLK [H2E], the abundance fitness was 0.066 ± 0.046. With YIADPSLVSFLTGLGCPNCIEYFTSQGLQSIYHLQNLTIEDLGALKIPEQYRMTIWRGLQDLK [H2I] the figure was 0.515 ± 0.097; with YCADPSLVSFLTGLGCPNCIEYFTSQGLQSIYHLQNLTIEDLGALKIPEQYRMTIWRGLQDLK [H2C], 0.197 ± 0.096. YQADPSLVSFLTGLGCPNCIEYFTSQGLQSIYHLQNLTIEDLGALKIPEQYRMTIWRGLQDLK [H2Q]: the abundance fitness stood at 0.345 ± 0.058.

Consider YAADPSLVSFLTGLGCPNCIEYFTSQGLQSIYHLQNLTIEDLGALKIPEQYRMTIWRGLQDLK [H2A], for which the abundance fitness was -0.094 ± 0.061. Turning to YSADPSLVSFLTGLGCPNCIEYFTSQGLQSIYHLQNLTIEDLGALKIPEQYRMTIWRGLQDLK [H2S], the abundance fitness was found to be 0.274 ± 0.041. With YYADPSLVSFLTGLGCPNCIEYFTSQGLQSIYHLQNLTIEDLGALKIPEQYRMTIWRGLQDLK [H2Y] the figure was -0.031 ± 0.11; with YVADPSLVSFLTGLGCPNCIEYFTSQGLQSIYHLQNLTIEDLGALKIPEQYRMTIWRGLQDLK [H2V], -0.004 ± 0.043. Turning to YMADPSLVSFLTGLGCPNCIEYFTSQGLQSIYHLQNLTIEDLGALKIPEQYRMTIWRGLQDLK [H2M], the abundance fitness worked out at 0.301 ± 0.1. As for YLADPSLVSFLTGLGCPNCIEYFTSQGLQSIYHLQNLTIEDLGALKIPEQYRMTIWRGLQDLK [H2L], the abundance fitness amounted to 0.202 ± 0.044.

YTADPSLVSFLTGLGCPNCIEYFTSQGLQSIYHLQNLTIEDLGALKIPEQYRMTIWRGLQDLK [H2T]: the abundance fitness turned out to be 0.273 ± 0.053. Consider YDADPSLVSFLTGLGCPNCIEYFTSQGLQSIYHLQNLTIEDLGALKIPEQYRMTIWRGLQDLK [H2D], for which the abundance fitness is -0.073 ± 0.095. With YPADPSLVSFLTGLGCPNCIEYFTSQGLQSIYHLQNLTIEDLGALKIPEQYRMTIWRGLQDLK [H2P], the abundance fitness stood at 0 ± 0.15. With YHADPCLVSFLTGLGCPNCIEYFTSQGLQSIYHLQNLTIEDLGALKIPEQYRMTIWRGLQDLK [S6C] the figure was 0.036 ± 0.067; with YHADPHLVSFLTGLGCPNCIEYFTSQGLQSIYHLQNLTIEDLGALKIPEQYRMTIWRGLQDLK [S6H], -0.077 ± 0.089. With YHADPNLVSFLTGLGCPNCIEYFTSQGLQSIYHLQNLTIEDLGALKIPEQYRMTIWRGLQDLK [S6N], the abundance fitness is -0.076 ± 0.21.

Turning to YHADPKLVSFLTGLGCPNCIEYFTSQGLQSIYHLQNLTIEDLGALKIPEQYRMTIWRGLQDLK [S6K], the abundance fitness is -0.07 ± 0.066.

Take YHADPELVSFLTGLGCPNCIEYFTSQGLQSIYHLQNLTIEDLGALKIPEQYRMTIWRGLQDLK [S6E]: the abundance fitness stood at 0.126 ± 0.048. Take YHADPLLVSFLTGLGCPNCIEYFTSQGLQSIYHLQNLTIEDLGALKIPEQYRMTIWRGLQDLK [S6L]: the abundance fitness is -0.15 ± 0.056. With YHADPALVSFLTGLGCPNCIEYFTSQGLQSIYHLQNLTIEDLGALKIPEQYRMTIWRGLQDLK [S6A] the figure was 0.041 ± 0.052; with YHADPDLVSFLTGLGCPNCIEYFTSQGLQSIYHLQNLTIEDLGALKIPEQYRMTIWRGLQDLK [S6D], 0.017 ± 0.14.

As to YHADPFLVSFLTGLGCPNCIEYFTSQGLQSIYHLQNLTIEDLGALKIPEQYRMTIWRGLQDLK [S6F], the abundance fitness is -0.095 ± 0.072.

With YHADPQLVSFLTGLGCPNCIEYFTSQGLQSIYHLQNLTIEDLGALKIPEQYRMTIWRGLQDLK [S6Q], the abundance fitness is 0.064 ± 0.066. For YHADPMLVSFLTGLGCPNCIEYFTSQGLQSIYHLQNLTIEDLGALKIPEQYRMTIWRGLQDLK [S6M], the abundance fitness was -0.031 ± 0.06. With YHADPGLVSFLTGLGCPNCIEYFTSQGLQSIYHLQNLTIEDLGALKIPEQYRMTIWRGLQDLK [S6G] the figure was 0.136 ± 0.027. On to YHWDPSLVSFLTGLGCPNCIEYFTSQGLQSIYHLQNLTIEDLGALKIPEQYRMTIWRGLQDLK [A3W], for which the abundance fitness came to 0.209 ± 0.037. Take YHIDPSLVSFLTGLGCPNCIEYFTSQGLQSIYHLQNLTIEDLGALKIPEQYRMTIWRGLQDLK [A3I]: the abundance fitness amounted to 0.405 ± 0.089. In the case of YHFDPSLVSFLTGLGCPNCIEYFTSQGLQSIYHLQNLTIEDLGALKIPEQYRMTIWRGLQDLK [A3F], the abundance fitness came out at 0.36 ± 0.11. With YHQDPSLVSFLTGLGCPNCIEYFTSQGLQSIYHLQNLTIEDLGALKIPEQYRMTIWRGLQDLK [A3Q] the figure was 0.311 ± 0.045. With YHDDPSLVSFLTGLGCPNCIEYFTSQGLQSIYHLQNLTIEDLGALKIPEQYRMTIWRGLQDLK [A3D] the figure was 0.08 ± 0.17; with YHHDPSLVSFLTGLGCPNCIEYFTSQGLQSIYHLQNLTIEDLGALKIPEQYRMTIWRGLQDLK [A3H], 0.101 ± 0.094.

YHKDPSLVSFLTGLGCPNCIEYFTSQGLQSIYHLQNLTIEDLGALKIPEQYRMTIWRGLQDLK [A3K]: the abundance fitness was 0.358 ± 0.042. Turning to YHYDPSLVSFLTGLGCPNCIEYFTSQGLQSIYHLQNLTIEDLGALKIPEQYRMTIWRGLQDLK [A3Y], the abundance fitness came to 0.201 ± 0.072.

As for YHLDPSLVSFLTGLGCPNCIEYFTSQGLQSIYHLQNLTIEDLGALKIPEQYRMTIWRGLQDLK [A3L], the abundance fitness was 0.311 ± 0.042. On to YHVDPSLVSFLTGLGCPNCIEYFTSQGLQSIYHLQNLTIEDLGALKIPEQYRMTIWRGLQDLK [A3V], for which the abundance fitness was 0.137 ± 0.051. With YHNDPSLVSFLTGLGCPNCIEYFTSQGLQSIYHLQNLTIEDLGALKIPEQYRMTIWRGLQDLK [A3N], the abundance fitness came out at 0.024 ± 0.16. Regarding YHEDPSLVSFLTGLGCPNCIEYFTSQGLQSIYHLQNLTIEDLGALKIPEQYRMTIWRGLQDLK [A3E], the abundance fitness was found to be 0.197 ± 0.063.

For YHSDPSLVSFLTGLGCPNCIEYFTSQGLQSIYHLQNLTIEDLGALKIPEQYRMTIWRGLQDLK [A3S], the abundance fitness worked out at 0.268 ± 0.054.

For the variant YHCDPSLVSFLTGLGCPNCIEYFTSQGLQSIYHLQNLTIEDLGALKIPEQYRMTIWRGLQDLK [A3C], the abundance fitness was 0.426 ± 0.062. As for YHPDPSLVSFLTGLGCPNCIEYFTSQGLQSIYHLQNLTIEDLGALKIPEQYRMTIWRGLQDLK [A3P], the abundance fitness turned out to be 0.361 ± 0.099.

Turning to YHRDPSLVSFLTGLGCPNCIEYFTSQGLQSIYHLQNLTIEDLGALKIPEQYRMTIWRGLQDLK [A3R], the abundance fitness was found to be 0.326 ± 0.028. Turning to YHMDPSLVSFLTGLGCPNCIEYFTSQGLQSIYHLQNLTIEDLGALKIPEQYRMTIWRGLQDLK [A3M], the abundance fitness was 0.349 ± 0.12. With YHGDPSLVSFLTGLGCPNCIEYFTSQGLQSIYHLQNLTIEDLGALKIPEQYRMTIWRGLQDLK [A3G], the abundance fitness worked out at 0.141 ± 0.038.
